Biological target: SARS-CoV-2 (2019-nCoV) Spike S1-His Recombinant Protein (Sino Biological Catalog Number 40591-V08H) (SARS-CoV-2) (UniProt P0DTC2)

Galanthus nivalis agglutinin (GNA), sequence (P30617 24-128 limits assumed): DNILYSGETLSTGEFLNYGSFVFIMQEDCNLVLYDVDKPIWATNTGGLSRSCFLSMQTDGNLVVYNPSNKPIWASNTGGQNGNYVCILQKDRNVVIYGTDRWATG

Substance: Galanthus nivalis agglutinin (GNA) (from UniProt P30617 24-128)
- percent of S1 depleted from solution at 15 minutes: > 90%

Reference: US12409260
